The target of experiment [1] is T1, human B7H6 on HCT-15 cells (human, UniProt Q68D85 25-454).
T1 sequence (looked up): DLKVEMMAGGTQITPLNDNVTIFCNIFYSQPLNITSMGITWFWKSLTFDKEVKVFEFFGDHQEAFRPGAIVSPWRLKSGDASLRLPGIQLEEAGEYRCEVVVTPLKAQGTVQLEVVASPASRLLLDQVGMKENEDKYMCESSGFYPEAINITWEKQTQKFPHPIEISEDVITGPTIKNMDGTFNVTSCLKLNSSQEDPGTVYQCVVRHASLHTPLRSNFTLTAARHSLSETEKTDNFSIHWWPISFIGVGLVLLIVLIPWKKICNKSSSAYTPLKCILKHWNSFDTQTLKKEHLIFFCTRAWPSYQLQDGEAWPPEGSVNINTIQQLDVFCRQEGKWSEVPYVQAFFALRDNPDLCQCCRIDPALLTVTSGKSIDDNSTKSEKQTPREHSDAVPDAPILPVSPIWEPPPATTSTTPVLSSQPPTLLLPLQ
Put plainly: cell-based or functional assay.

In experiment [2] the target is T2, Fc-His-tagged human B7H6 ECD (human).
T2 construct: also called huB7H6-ECD-Fc-His; recombinant human B7H6 ECD
Put plainly: ELISA, plate coated with Fc-His-tagged human B7H6 ECD, anti-human IgG F(ab')2-peroxidase, TMB. (ELISA stands for enzyme-linked immunosorbent assay.)

Experiment [3] concerns the target T3, Fc-His-tagged human Ala-mutated B7H6 ECD (human).
T3 construct: also called huB7H6-Ala-ECD
The experiment can be described thus: ELISA, plate coated with Fc-His-tagged human Ala-mutated B7H6 ECD, anti-human IgG F(ab')2-peroxidase, TMB. Here is the method: To assess binding of B7H6/CD3 binding proteins to recombinant human Fc-His-tagged B7H6 ECD and human Fc-His-tagged Ala-mutated B7H6 extracellular proteins as described in Example 3, MediSorp™ plates (Nunc, 467320) were coated with […] recombinant proteins overnight at 4° C. The next day, plates were blocked with 0.5% bovine serum albumin (BSA) in phosphate buffered saline (PBS) for 1 hour at room temperature (RT). Subsequently plates were washed with […] containing 0.05% TWEEN®20 viscous liquid and B7H6/CD3 binding proteins were incubated at concentrations ranging from 0.00001 to 10 μg/ml. After an additional washing step, bound B7H6/CD3 binding proteins were detected by a peroxidase conjugated goat anti-human IgG F(ab′)₂-specific secondary antibody (Jackson Immunoresearch) and visualized by TMB substrate solution (Bender Med Systems).

In experiment [4] the target is T1, human B7H6 on HCT-15 cells. The experiment can be described thus: flow cytometry on HCT-15 cells, PE anti-human secondary antibody. Here is the method: Binding of B7H6/CD3 binding proteins to HCT-15, a human (colo-rectal cancer) CRC cell line was tested by flow cytometry. In a previous experiment, it has been confirmed that HCT-15 cells expresses B7-H6 on the RNA levels as well as the protein level with approximately 8,000 B7-H6 receptors on the cell surface (data not shown). B7H6/CD3 binding proteins were produced, as described in Example 2. HCT-15 cells were stained with increasing concentrations of two-step purified B7H6/CD3 binding proteins in FACS buffer (PBS/0.5% BSA/0.05% sodium azide). Bound molecules were detected with PE-conjugated anti-human secondary antibody (Sigma-Aldrich, #P8047).

B1: B7H6#4/CD3#1 (bispecific antibody, human IgG1, kappa, lambda, L234A L235A)
chain 1: DIVMTQSQKFMSTSVGDRVSVTCKASQNVGKYVAWYQQKPGQSPKALIYSASNRYDGVPDRFTGSGSGTDFTLTITNVQSEDLTEYFCQQYISYPLTFGAGTKLELKRTVAAPSVFIFPPSDEQLKSGTASVVCLLNNFYPREAKVQWKVDNALQSGNSQESVTEQDSKDSTYSLSSTLTLSKADYEKHKVYACEVTHQGLSSPVTKSFNRGECGGGGSEGKSSGSGSESKSTEGKSSGSGSESKSTGGGGSQVQLQQPGSVLVRPGASVRLSCKASGYTFTNYWMNWMKQRPGQGLEWIGGIYLNGDSTDYNEKFKGKATLTVDTSSSTTYMDLSSLTYEDSAVYYCTTRGDYFGDFWGQGTTLTVSSASTKGPSVFPLAPSSKSTSGGTAALGCLVKDYFPEPVTVSWNSGALTSGVHTFPAVLQSSGLYSLSSVVTVPSSSLGTQTYICNVNHKPSNTKVDKRVEPKSCDKTHTCPPCPAPEAAGGPSVFLFPPKPKDTLMISRTPEVTCVVVDVSHEDPEVKFNWYVDGVEVHNAKTKPREEQYNSTYRVVSVLTVLHQDWLNGKEYKCKVSNKALPAPIEKTISKAKGQPREPQVYTLPPSREEMTKNQVSLWCLVKGFYPSDIAVEWESNGQPENNYKTTPPVLDSDGSFFLYSKLTVDKSRWQQGNVFSCSVMHEALHNHYTQKSLSLSPG
chain 2: EAVVTQEPSLTVSPGGTVTLTCRSSTGAVTTSNYANWVQEKPGQLPRGLIGGTNKRAPWVPARFSGSLLGGKAALTLSGAQPEDEAEYFCALWYSNLWVFGGGTKLTVLGQPKAAPSVTLFPPSSEELQANKATLVCLISDFYPGAVKVAWKADGSPVNTGVETTTPSKQSNNKYAASSYLSLTPEQWKSHRSYSCQVTHEGSTVEKTVAPAECSGGGGSEGKSSGSGSESKSTEGKSSGSGSESKSTGGGGSEVQLVESGGGLVQPGGSLKLSCAASGFTFNTYAMNWVRQAPGKGLEWVARIRSKYNNYATYYADSVKDRFTISRDDSKNTAYLQMNNLKTEDTAVYYCVRHGNFGNSYVSWFAYWGQGTLVTVSAASTKGPSVFPLAPSSKSTSGGTAALGCLVKDYFPEPVTVSWNSGALTSGVHTFPAVLQSSGLYSLSSVVTVPSSSLGTQTYICNVNHKPSNTKVDKRVEPKSCDKTHTCPPCPAPEAAGGPSVFLFPPKPKDTLMISRTPEVTCVVVDVSHEDPEVKFNWYVDGVEVHNAKTKPREEQYNSTYRVVSVLTVLHQDWLNGKEYKCKVSNKALPAPIEKTISKAKGQPREPQVYTLPPSREEMTKNQVSLSCAVKGFYPSDIAVEWESNGQPENNYKTTPPVLDSDGSFFLVSKLTVDKSRWQQGNVFSCSVMHEALHNRFTQKSLSLSPG
notes: scFab-Fc heterodimer, one B7H6 chain and one CD3 chain
For orientation: EC50 (read off the curve) means the concentration giving half of the maximal effect. A high value points to a less potent agent. With B1, the “EC50 [nM], 72 hour cytotoxicity assay, non-stimulated T-cells (Donor #1) as effector cells, HCT-15 cells as target cells” value in experiment [1] stood at 0.23 nM. The entries for the concentration for a half-maximal effect (EC50 (read off the curve)) in experiment [2] and in experiment [3] were about 0.05 µg/mL and about 0.2 µg/mL, respectively.

B2: B7H6#6/CD3#1 (bispecific antibody, human IgG1, kappa, lambda, L234A L235A)
chain 1: DIVMTQSPDSLPVSAGDRVTITCKASQSVSNDVVWYQQKPGQSPKLLMYSTSNRYIGVPDRFTGSGYGTDFTFTISTVQAEDLAVYFCQQDYSSPYTFGGGTKLEIKRTVAAPSVFIFPPSDEQLKSGTASVVCLLNNFYPREAKVQWKVDNALQSGNSQESVTEQDSKDSTYSLSSTLTLSKADYEKHKVYACEVTHQGLSSPVTKSFNRGECGGGGSEGKSSGSGSESKSTEGKSSGSGSESKSTGGGGSEVQLQQSGPELLKPGASVKISCKTSGYTFTDYTMHWVKQSHGKSLEWIGGINPNYDNTGYSEKFKDKATLTVDKSSSTAYMELRSLTSEDSAVYYCTRSGSRRSFYFDYWGQGTTLTVSSASTKGPSVFPLAPSSKSTSGGTAALGCLVKDYFPEPVTVSWNSGALTSGVHTFPAVLQSSGLYSLSSVVTVPSSSLGTQTYICNVNHKPSNTKVDKRVEPKSCDKTHTCPPCPAPEAAGGPSVFLFPPKPKDTLMISRTPEVTCVVVDVSHEDPEVKFNWYVDGVEVHNAKTKPREEQYNSTYRVVSVLTVLHQDWLNGKEYKCKVSNKALPAPIEKTISKAKGQPREPQVYTLPPSREEMTKNQVSLWCLVKGFYPSDIAVEWESNGQPENNYKTTPPVLDSDGSFFLYSKLTVDKSRWQQGNVFSCSVMHEALHNHYTQKSLSLSPG
chain 2: EAVVTQEPSLTVSPGGTVTLTCRSSTGAVTTSNYANWVQEKPGQLPRGLIGGTNKRAPWVPARFSGSLLGGKAALTLSGAQPEDEAEYFCALWYSNLWVFGGGTKLTVLGQPKAAPSVTLFPPSSEELQANKATLVCLISDFYPGAVKVAWKADGSPVNTGVETTTPSKQSNNKYAASSYLSLTPEQWKSHRSYSCQVTHEGSTVEKTVAPAECSGGGGSEGKSSGSGSESKSTEGKSSGSGSESKSTGGGGSEVQLVESGGGLVQPGGSLKLSCAASGFTFNTYAMNWVRQAPGKGLEWVARIRSKYNNYATYYADSVKDRFTISRDDSKNTAYLQMNNLKTEDTAVYYCVRHGNFGNSYVSWFAYWGQGTLVTVSAASTKGPSVFPLAPSSKSTSGGTAALGCLVKDYFPEPVTVSWNSGALTSGVHTFPAVLQSSGLYSLSSVVTVPSSSLGTQTYICNVNHKPSNTKVDKRVEPKSCDKTHTCPPCPAPEAAGGPSVFLFPPKPKDTLMISRTPEVTCVVVDVSHEDPEVKFNWYVDGVEVHNAKTKPREEQYNSTYRVVSVLTVLHQDWLNGKEYKCKVSNKALPAPIEKTISKAKGQPREPQVYTLPPSREEMTKNQVSLSCAVKGFYPSDIAVEWESNGQPENNYKTTPPVLDSDGSFFLVSKLTVDKSRWQQGNVFSCSVMHEALHNRFTQKSLSLSPG
notes: as for B1
Take B2: the “EC50 [nM], 72 hour cytotoxicity assay, non-stimulated T-cells (Donor #1) as effector cells, HCT-15 cells as target cells” value in experiment [1] stood at 0.46 nM. In addition, the concentration giving a half-maximal response (EC50 (read off the curve)) in experiment [2] was about 0.05 µg/mL. For the same molecule, the binding result in experiment [3] was “no binding (tested: 10 µg/ml)”.

B3: B7H6#7/CD3#1 (bispecific antibody, human IgG1, kappa, lambda, L234A L235A)
chain 1: DIQMTQSPSSVSASVGDRVTITCRASQGISSWLAWYQQKPGKAPNLLIYAASSLQSGVPSRFSGSGSGTDFTLTISSLQPEDFATYYCQQANSFPRTFGQGTKVEIKRTVAAPSVFIFPPSDEQLKSGTASVVCLLNNFYPREAKVQWKVDNALQSGNSQESVTEQDSKDSTYSLSSTLTLSKADYEKHKVYACEVTHQGLSSPVTKSFNRGECGGGGSEGKSSGSGSESKSTEGKSSGSGSESKSTGGGGSQVQLQESGPGLVKPSETLSLTYTVSGGSISYNYWSWIRQPPEKGLEWIGHIYYSGSTNYNPSLKSRVTISVDTSKNQFSLKLNSVTAADTAVYYCARVGTWGSFDDWGQGTLVTVSSASTKGPSVFPLAPSSKSTSGGTAALGCLVKDYFPEPVTVSWNSGALTSGVHTFPAVLQSSGLYSLSSVVTVPSSSLGTQTYICNVNHKPSNTKVDKRVEPKSCDKTHTCPPCPAPEAAGGPSVFLFPPKPKDTLMISRTPEVTCVVVDVSHEDPEVKFNWYVDGVEVHNAKTKPREEQYNSTYRVVSVLTVLHQDWLNGKEYKCKVSNKALPAPIEKTISKAKGQPREPQVYTLPPSREEMTKNQVSLWCLVKGFYPSDIAVEWESNGQPENNYKTTPPVLDSDGSFFLYSKLTVDKSRWQQGNVFSCSVMHEALHNHYTQKSLSLSPG
chain 2: EAVVTQEPSLTVSPGGTVTLTCRSSTGAVTTSNYANWVQEKPGQLPRGLIGGTNKRAPWVPARFSGSLLGGKAALTLSGAQPEDEAEYFCALWYSNLWVFGGGTKLTVLGQPKAAPSVTLFPPSSEELQANKATLVCLISDFYPGAVKVAWKADGSPVNTGVETTTPSKQSNNKYAASSYLSLTPEQWKSHRSYSCQVTHEGSTVEKTVAPAECSGGGGSEGKSSGSGSESKSTEGKSSGSGSESKSTGGGGSEVQLVESGGGLVQPGGSLKLSCAASGFTFNTYAMNWVRQAPGKGLEWVARIRSKYNNYATYYADSVKDRFTISRDDSKNTAYLQMNNLKTEDTAVYYCVRHGNFGNSYVSWFAYWGQGTLVTVSAASTKGPSVFPLAPSSKSTSGGTAALGCLVKDYFPEPVTVSWNSGALTSGVHTFPAVLQSSGLYSLSSVVTVPSSSLGTQTYICNVNHKPSNTKVDKRVEPKSCDKTHTCPPCPAPEAAGGPSVFLFPPKPKDTLMISRTPEVTCVVVDVSHEDPEVKFNWYVDGVEVHNAKTKPREEQYNSTYRVVSVLTVLHQDWLNGKEYKCKVSNKALPAPIEKTISKAKGQPREPQVYTLPPSREEMTKNQVSLSCAVKGFYPSDIAVEWESNGQPENNYKTTPPVLDSDGSFFLVSKLTVDKSRWQQGNVFSCSVMHEALHNRFTQKSLSLSPG
notes: as for B1
B3: the “EC50 [nM], 72 hour cytotoxicity assay, non-stimulated T-cells (Donor #1) as effector cells, HCT-15 cells as target cells” value in experiment [1] turned out to be 0.36 nM. Besides, the “EC50 (read off the curve)” value is about 0.05 µg/mL in experiment [2] and about 1000 pM in experiment [4].

Source of the values: patent publication US20210107983A1 (Boehringer Ingelheim, published 2021).
